Data taken from patent US20090023646A1, “GHRH analogues” (Centre Hospitalier de L'Universite de Montreal (CHUM), priority 2002, published 2009).
Where two headings read alike, the source gives them in different places. Square brackets hold non-standard residues; d marks the D form. Ends that are not written are not given here.

T1: human GHRH receptor (human, UniProt Q02643 23-423)
T1 construct: whole, on cells; Assayed in BHK cell membrane preparations (25 ug protein per tube), not on intact cells; also called hGHRH-R; hGHRH receptor
T1 sequence (looked up): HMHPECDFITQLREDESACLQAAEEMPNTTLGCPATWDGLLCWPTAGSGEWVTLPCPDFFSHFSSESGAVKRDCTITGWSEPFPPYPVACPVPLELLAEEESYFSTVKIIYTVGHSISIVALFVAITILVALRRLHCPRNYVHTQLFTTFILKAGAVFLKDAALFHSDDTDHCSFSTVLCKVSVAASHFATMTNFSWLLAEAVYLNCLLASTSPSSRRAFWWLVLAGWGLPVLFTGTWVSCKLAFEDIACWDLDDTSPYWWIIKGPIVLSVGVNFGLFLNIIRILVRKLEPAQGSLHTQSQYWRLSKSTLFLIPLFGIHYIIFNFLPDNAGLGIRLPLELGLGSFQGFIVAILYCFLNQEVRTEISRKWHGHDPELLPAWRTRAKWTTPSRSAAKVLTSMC

T2: rat GHRH receptor (rat, UniProt Q02644 23-464)
T2 construct: whole, on cells; Native tissue membrane preparation; In the in vivo study it is the receptor on rat pituitary somatotrophs; also called rat pituitary GHRH receptor
T2 sequence (looked up): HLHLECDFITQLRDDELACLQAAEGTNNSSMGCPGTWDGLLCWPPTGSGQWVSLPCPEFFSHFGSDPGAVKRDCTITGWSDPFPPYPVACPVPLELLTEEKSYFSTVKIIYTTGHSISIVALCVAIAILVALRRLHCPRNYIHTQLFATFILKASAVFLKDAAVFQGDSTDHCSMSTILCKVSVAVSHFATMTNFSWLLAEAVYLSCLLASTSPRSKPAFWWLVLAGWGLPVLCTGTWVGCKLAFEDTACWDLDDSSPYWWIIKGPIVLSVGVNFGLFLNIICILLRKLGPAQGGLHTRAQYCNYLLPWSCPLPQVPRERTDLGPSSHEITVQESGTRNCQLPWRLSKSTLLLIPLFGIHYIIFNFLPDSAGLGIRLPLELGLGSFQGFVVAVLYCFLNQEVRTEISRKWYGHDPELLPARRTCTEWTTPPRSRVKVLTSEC


Columns and labels:
[1] = target: T1, human GHRH receptor; assay: competition with [125I-Tyr10]hGHRH(1-44)NH2, BHK cell membrane preparations expressing the human GHRH receptor
Description: (§1) Incubation was carried out at equilibrium (23° C., 60 min) and stopped by centrifugation (12,000 g, 5 min, at 4° C.). The radioactivity content in pellets was determined by gamma counting. […] The Ligand computerized program was used to analyze competition curves of GHRH analogues reported in Tables 2 and 3 and to determine their IC₅₀ (Gaudreau P. et al. (1992) J Med Chem, 35: 1864-1869).
(§2) IC₅₀ is the concentration of peptide inhibiting 50% of ¹²⁵I-GHRH specific binding as determined by the LIGAND program for analysis of competition curves.

[2] = target: T2, rat GHRH receptor; assay: competition with [125I-Tyr10]hGHRH(1-44)-NH2, rat anterior pituitary membrane preparations
[3] = target: T1, human GHRH receptor; assay: competition with [125I-Tyr10]hGHRH(1-44)NH2, BHK cell membrane preparations expressing the human GHRH receptor; remark: listed apart in the source
Description: as §1, §2

[4] = target: T1, human GHRH receptor; assay: competition with [125I-Tyr10]hGHRH(1-44)NH2, BHK cell membrane preparations expressing the human GHRH receptor (reference peptide; its IC50 is not given)
Description: as §1, §2

| Binder | IC50 [1] | relative binding affinity (R1) in comparison with hGHRH(1-29)NH2 [1] | relative binding affinity in rat anterior pituitary (compared to hGHRH(1-29)-NH2) [2] | IC50 [3] | binding result [4] |
| --- | --- | --- | --- | --- | --- |
| Y[dA]DAIFTNS[dY]RKVL[dA]QLSARKKLQDIMSR-NH2 (also: acetate salt, also called GHRH analogue #5; human GHRH analogue #5) [[D-Ala2, D-Tyr10, D-Ala15, Lys22] hGHRH(1-29)-NH2] | 6 pM | 939 ratio IC50 of hGHRH(1-29)-NH2 / IC50 analogue | 1.04 fold against hGHRH(1-29)-NH2 | 1.2 pM | – |
| Y[dA]DAIFTAS[dY]RKVLAQLSAR[dK]KLQDIMSR-NH2 (N-terminus assumed; SMILES CC[C@H](C)[C@H](NC(=O)[C@H](C)NC(=O)[C@H](CC(=O)O)NC(=O)[C@@H](C)NC(=O)[C@@H](N)Cc1ccc(O)cc1)C(=O)N[C@@H](Cc1ccccc1)C(=O)N[C@H](C(=O)N[C@@H](C)C(=O)N[C@@H](CO)C(=O)N[C@H](Cc1ccc(O)cc1)C(=O)N[C@@H](CCCNC(=N)N)C(=O)N[C@@H](CCCCN)C(=O)N[C@H](C(=O)N[C@@H](CC(C)C)C(=O)N[C@@H](C)C(=O)N[C@@H](CCC(N)=O)C(=O)N[C@@H](CC(C)C)C(=O)N[C@@H](CO)C(=O)N[C@@H](C)C(=O)N[C@@H](CCCNC(=N)N)C(=O)N[C@H](CCCCN)C(=O)N[C@@H](CCCCN)C(=O)N[C@@H](CC(C)C)C(=O)N[C@@H](CCC(N)=O)C(=O)N[C@@H](CC(=O)O)C(=O)N[C@H](C(=O)N[C@@H](CCSC)C(=O)N[C@@H](CO)C(=O)N[C@@H](CCCNC(=N)N)C(N)=O)[C@@H](C)CC)C(C)C)[C@@H](C)O, Synthetic 29-residue amide; also called GHRH analogue #4; No. 4) [[D-Ala2, Ala8, D-Tyr10, Ala15, D-Lys21, Lys22] hGHRH(1-29)-NH2] | 37000 pM | 0.05 ratio IC50 of hGHRH(1-29)-NH2 / IC50 analogue | 5 fold against hGHRH(1-29)-NH2 | – | – |
| YADAIFTNSYRKVLGQLSARKLLQDIMSR-NH2 (also called hGHRH(1-29)NH2; hGHRH(1-29)-NH2) [human GHRH(1-29)NH2] | – | – | – | – | binds |
| Y[dA]DAIFTNS[dY]RKVLGQLSARKKLQDIMSR-NH2 (N-terminus assumed; SMILES CC[C@H](C)[C@H](NC(=O)[C@H](C)NC(=O)[C@H](CC(=O)O)NC(=O)[C@@H](C)NC(=O)[C@@H](N)Cc1ccc(O)cc1)C(=O)N[C@@H](Cc1ccccc1)C(=O)N[C@H](C(=O)N[C@@H](CC(N)=O)C(=O)N[C@@H](CO)C(=O)N[C@H](Cc1ccc(O)cc1)C(=O)N[C@@H](CCCNC(=N)N)C(=O)N[C@@H](CCCCN)C(=O)N[C@H](C(=O)N[C@@H](CC(C)C)C(=O)NCC(=O)N[C@@H](CCC(N)=O)C(=O)N[C@@H](CC(C)C)C(=O)N[C@@H](CO)C(=O)N[C@@H](C)C(=O)N[C@@H](CCCNC(=N)N)C(=O)N[C@@H](CCCCN)C(=O)N[C@@H](CCCCN)C(=O)N[C@@H](CC(C)C)C(=O)N[C@@H](CCC(N)=O)C(=O)N[C@@H](CC(=O)O)C(=O)N[C@H](C(=O)N[C@@H](CCSC)C(=O)N[C@@H](CO)C(=O)N[C@@H](CCCNC(=N)N)C(N)=O)[C@@H](C)CC)C(C)C)[C@@H](C)O, Synthetic 29-residue amide; also called GHRH analogue #3; No. 3) [[D-Ala2, D-Tyr10, Lys22] hGHRH(1-29)-NH2] | 6.3 pM | 239 ratio IC50 of hGHRH(1-29)-NH2 / IC50 analogue | 4.9 fold against hGHRH(1-29)-NH2 | – | – |
